The record followed here is patent publication US20260027153A1 (published 2026).

For assay [1], the target named is HLA-A*02:01 restricted NY-ESO-1 C9V peptide (…) pMHC (human). The experiment in a line: transduced PBMCs loaded on pMHC-labeled nanovials (20 µg/ml pMHC), flow cytometry. (A flow cytometer gives signals particle by particle.)
For assay [2] the target is unchanged. As to the kind of experiment: transduced PBMCs loaded on pMHC-labeled nanovials (20 µg/ml pMHC), anti-NGFR staining, flow cytometry.
Assay [3] has as its target T1, SCAMP3 (secretory carrier-associated membrane protein 3), cancer-enhanced splicing epitope peptide on … (human).
T1 peptide: STMYYLWML
The experiment in a line: multimer staining.

Assay [4] has as its target T2, MEAF6 (MYST/Esa1 associated factor 6) splicing variant peptide on HLA-A*02:01 (human).
T2 peptide: SGMFDYDFEYV
As to the kind of experiment: multimer staining.

Turning to 1G4 TCR, the fraction of nanovials occupied by live cells in assay [1] is 17%. In assay [2], the fraction of nanovial-bound live cells with NGFR expression was determined as 93.9%.

B1: NVTCR11 (TCR, V domains shown)
Valpha: GIQVEQSPPDLILQEGANSTLRCNFSDSVNNLQWFHQNPWGQLINLFYIPSGTKQNGRLSATTVATERYSLLYISSSQTTDSGVYFCAVDLNDYKLSFGAGTTVTVRA
Vbeta: NAGVTQTPKFRVLKTGQSMTLLCAQDMNHEYMYWYRQDPGMGLRLIHYSVGEGTTAKGEVPDGYNVSRLKKQNFLLGLESAAPSQTSVYFCASSSHGSTGELFFGEGSRLTVL
In the case of B1, the binding result in assay [3] is listed as “recognises”.

B2: NVTCR19 (TCR, V domains shown)
Valpha: KQEVTQIPAALSVPEGENLVLNCSFTDSAIYNLQWFRQDPGKGLTSLLLIQSSQREQTSGRLNASLDKSSGRSTLYIAASQPGDSATYLCAVTSGGSYIPTFGRGTSLIVHP
Vbeta: DGGITQSPKYLFRKEGQNVTLSCEQNLNHDAMYWYRQDPGQGLRLIYYSQIVNDFQKGDIAEGYSVSREKKESFPLTVTSAQKNPTAFYLCASSDPFRSGTDSPLHFGNGTRLTVT
As for B2, the binding result in assay [3] is “recognises”.

B3: NVTCR21 (TCR, V domains shown)
Valpha: AQSVAQPEDQVNVAEGNPLTVKCTYSVSGNPYLFWYVQYPNRGLQFLLKYITGDNLVKGSYGFEAEFNKSQTSFHLKKPSALVSDSALYFCAVRDTPSGSARQLTFGSGTQLTVLP
Vbeta: GAGVSQTPSNKVTEKGKYVELRCDPISGHTALYWYRQSLGQGPEFLIYFQGTGAADDSGLPNDRFFAVRPEGSVSTLKIQRTERGDSAVYLCASSLTSSGGGPYNEQFFGPGTRLTVL
As for B3, the binding result in assay [4] was “recognises”.
